Substrate: O=NO
Assay: nitrite consumption, diazo-coupling colorimetric assay; Hanes-Woolf plot
Type: biochemical, Nitrosococcus oceani
Conditions: reduced methylviologen (dithionite) as electron donor, pH 5.5 (optimal), 30 mM CPT buffer, 37°C, under mineral oil, kcat per subunit

B1: Cu-containing nitrite reductase (recombinant NirK) from Nitrosococcus oceani NS58 (Nitrosococcus oceani ATCC 19707) (protein)
chain: ADGEASSYIANIGTHANLKDLERVRQELVAPPHLPDHQQAYSGKPRIVEIEMVIEEKEVEIEPNVFVQAMTFNGTNPGPIIVVHEGDYVELTLKNLDTNMLLHNIDFHPATGALGGGALTKVAPGQQVTLRFKADKAGTYVYHCAPGGLMTPYHVVSGMYGAIMIFPKKGLRDQNGKKVTYDKAYYVGEQGWYIPKDKNGKYKRYANAIEPYGDTLEVMRGLVPTHVTYNGSKGALTGDNAMKAKVGDSVLFIHSQANEDSRIHLIGGHGDLVWPGGSFKNTPMVDKETWHVNGGESVAALYTFKQPGLYAYLNHNLIQAFMLGGAAHVKVDGEWNNDLMEQVVKPSPINAD
  Km: 52 µM
  kcat: 1600 s⁻¹

From publication PMC4103548, “Expression, and Molecular and Enzymatic Characterization of Cu-Containing Nitrite Reductase from a Marine Ammonia-Oxidizing Gammaproteobacterium, Nitrosococcus oceani” (Microbes and Environments, 2012)
